Measurements published in article PMC11665475, “The CTR hydrophobic residues of Nem1 catalytic subunit are required to form a protein phosphatase complex with Spo7 to activate yeast Pah1 PA phosphatase” (The Journal of Biological Chemistry, 2024).

Assays:
Test in all cases: cell-based or functional assay
[1] = biological target: T1, protein A-tagged Nem1 Δ(414–446) (S. cerevisiae, UniProt P38757 1-413)
T1 sequence (looked up): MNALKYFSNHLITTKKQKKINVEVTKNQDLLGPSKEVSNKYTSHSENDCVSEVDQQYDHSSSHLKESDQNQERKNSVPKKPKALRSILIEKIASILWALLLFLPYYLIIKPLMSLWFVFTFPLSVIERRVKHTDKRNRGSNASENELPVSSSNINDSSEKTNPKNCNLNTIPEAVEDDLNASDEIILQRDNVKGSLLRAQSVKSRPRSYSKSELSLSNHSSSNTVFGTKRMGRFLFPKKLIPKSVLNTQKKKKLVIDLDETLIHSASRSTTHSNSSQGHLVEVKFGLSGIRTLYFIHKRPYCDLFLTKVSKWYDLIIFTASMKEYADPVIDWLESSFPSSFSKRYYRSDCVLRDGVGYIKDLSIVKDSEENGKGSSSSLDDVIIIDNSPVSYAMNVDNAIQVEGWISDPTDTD

[2] = biological target: T2, protein A-tagged Nem1 8A (S. cerevisiae, UniProt P38757 1-446, L414 A | L415 A | L417 A | L418 A | L421 A | V430 A | L434 A | L436 A)
T2 sequence (looked up): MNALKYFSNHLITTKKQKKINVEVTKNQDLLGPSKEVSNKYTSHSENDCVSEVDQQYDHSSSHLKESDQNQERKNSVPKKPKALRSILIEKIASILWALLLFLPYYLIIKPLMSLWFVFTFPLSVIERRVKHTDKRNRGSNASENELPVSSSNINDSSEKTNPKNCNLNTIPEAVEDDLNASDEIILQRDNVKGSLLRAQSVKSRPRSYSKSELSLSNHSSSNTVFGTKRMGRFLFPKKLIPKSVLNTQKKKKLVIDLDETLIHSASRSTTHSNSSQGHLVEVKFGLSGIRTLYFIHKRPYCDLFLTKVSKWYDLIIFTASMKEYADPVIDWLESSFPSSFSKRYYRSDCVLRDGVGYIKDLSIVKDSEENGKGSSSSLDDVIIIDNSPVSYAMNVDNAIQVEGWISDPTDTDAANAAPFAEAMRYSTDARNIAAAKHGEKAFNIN

[3] = biological target: T3, protein A-tagged Nem1 8R (S. cerevisiae, UniProt P38757 1-446, L414 R | L415 R | L417 R | L418 R | L421 R | V430 R | L434 R | L436 R)
T3 sequence (looked up): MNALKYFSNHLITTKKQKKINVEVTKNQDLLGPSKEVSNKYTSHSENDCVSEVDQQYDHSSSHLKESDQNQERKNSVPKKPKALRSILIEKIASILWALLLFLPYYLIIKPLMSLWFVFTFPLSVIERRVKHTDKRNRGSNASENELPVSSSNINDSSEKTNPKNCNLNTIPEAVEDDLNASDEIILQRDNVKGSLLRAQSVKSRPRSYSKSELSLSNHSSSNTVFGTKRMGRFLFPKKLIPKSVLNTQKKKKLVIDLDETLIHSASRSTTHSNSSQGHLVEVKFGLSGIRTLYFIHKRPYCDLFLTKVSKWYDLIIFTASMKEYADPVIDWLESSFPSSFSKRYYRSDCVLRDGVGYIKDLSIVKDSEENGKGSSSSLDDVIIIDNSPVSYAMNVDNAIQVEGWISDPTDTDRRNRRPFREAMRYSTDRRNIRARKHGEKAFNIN

Measured: share of purified phosphorylated Pah1 found in the pellet of membranes containing the Nem1-PtA variant and Spo7 after centrifugation at 100,000g (translocation of Pah1 to membranes)

B1: Spo7 (natural protein, S. cerevisiae, UniProt P18410 1-259, looked up)
chain: MEPESIGDVGNHAQDDSASIVSGPRRRSTSKTSSAKNIRNSSNISPASMIFRNLLILEDDLRRQAHEQKILKWQFTLFLASMAGVGAFTFYELYFTSDYVKGLHRVILQFTLSFISITVVLFHISGQYRRTIVIPRRFFTSTNKGIRQFNVKLVKVQSTWDEKYTDSVRFVSRTIAYCNIYCLKKFLWLKDDNAIVKFWKSVTIQSQPRIGAVDVKLVLNPRAFSAEIREGWEIYRDEFWAREGARRRKQAHELRPKSE
≤ 20%: all assays above
